According to IntAct's records for PubMed 23023224:

B1: Unconventional myosin-VI (Homo sapiens), Q9UM54 (parent)
chain: MEDGKPVWAPHPTDGFQMGNIVDIGPDSLTIEPLNQKGKTFLALINQVFPAEEDSKKDVEDNCSLMYLNEATLLHNIKVRYSKDRIYTYVANILIAVNPYFDIPKIYSSEAIKSYQGKSLGTRPPHVFAIADKAFRDMKVLKMSQSIIVSGESGAGKTENTKFVLRYLTESYGTGQDIDDRIVEANPLLEAFGNAKTVRNNNSSRFGKFVEIHFNEKSSVVGGFVSHYLLEKSRICVQGKEERNYHIFYRLCAGASEDIREKLHLSSPDNFRYLNRGCTRYFANKETDKQILQNRKSPEYLKAGSMKDPLLDDHGDFIRMCTAMKKIGLDDEEKLDLFRVVAGVLHLGNIDFEEAGSTSGGCNLKNKSAQSLEYCAELLGLDQDDLRVSLTTRVMLTTAGGTKGTVIKVPLKVEQANNARDALAKTVYSHLFDHVVNRVNQCFPFETSSYFIGVLDIAGFEYFEHNSFEQFCINYCNEKLQQFFNERILKEEQELYQKEGLGVNEVHYVDNQDCIDLIEAKLVGILDILDEENRLPQPSDQHFTSAVHQKHKDHFRLTIPRKSKLAVHRNIRDDEGFIIRHFAGAVCYETTQFVEKNNDALHMSLESLICESRDKFIRELFESSTNNNKDTKQKAGKLSFISVGNKFKTQLNLLLDKLRSTGASFIRCIKPNLKMTSHHFEGAQILSQLQCSGMVSVLDLMQGGYPSRASFHELYNMYKKYMPDKLARLDPRLFCKALFKALGLNENDYKFGLTKVFFRPGKFAEFDQIMKSDPDHLAELVKRVNHWLTCSRWKKVQWCSLSVIKLKNKIKYRAEACIKMQKTIRMWLCKRRHKPRIDGLVKVGTLKKRLDKFNEVVSVLKDGKPEMNKQIKNLEISIDTLMAKIKSTMMTQEQIQKEYDALVKSSEELLSALQKKKQQEEEAERLRRIQEEMEKERKRREEDEKRRRKEEEERRMKLEMEAKRKQEEEERKKREDDEKRIQAEVEAQLARQKEEESQQQAVLEQERRDRELALRIAQSEAELISDEAQADLALRRSLDSYPVSKNDGTRPKMTPEQMAKEMSEFLSRGPAVLATKAAAGTKKYDLSKWKYAELRDTINTSCDIELLAACREEFHRRLKVYHAWKSKNKKRNTETEQRAPKSVTDYDFAPFLNNSPQQNPAAQIPARQREIEMNRQQRFFRIPFIRPADQYKDPQSKKKGWWYAHFDGPWIARQMELHPDKPPILLVAGKDDMEMCELNLEETGLTRKRGAEILPRQFEEIWERCGGIQYLQNAIESRQARPTYATAMLQSLLK
partner: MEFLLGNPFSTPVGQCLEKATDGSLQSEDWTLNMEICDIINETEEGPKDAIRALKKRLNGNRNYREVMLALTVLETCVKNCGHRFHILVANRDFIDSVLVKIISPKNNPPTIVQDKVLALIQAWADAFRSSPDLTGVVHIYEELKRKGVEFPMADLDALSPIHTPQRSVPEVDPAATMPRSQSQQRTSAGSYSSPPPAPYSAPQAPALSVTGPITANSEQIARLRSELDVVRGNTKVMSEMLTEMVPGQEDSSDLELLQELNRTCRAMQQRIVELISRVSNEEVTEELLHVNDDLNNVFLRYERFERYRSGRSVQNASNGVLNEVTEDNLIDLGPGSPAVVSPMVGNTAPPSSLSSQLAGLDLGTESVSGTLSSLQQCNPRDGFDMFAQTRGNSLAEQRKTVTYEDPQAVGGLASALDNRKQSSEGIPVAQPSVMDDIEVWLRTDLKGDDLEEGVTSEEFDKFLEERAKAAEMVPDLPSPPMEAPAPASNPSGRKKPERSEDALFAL
B2: Unconventional myosin-VI (Homo sapiens), Q9UM54 (parent)
chain: B1 chain

Variants of: B1
Conditions: with tm1l2_human TOM1L2, Q6ZVM7
For W1202L, the “effect of a mutation on the interaction” value was “disrupting interaction strength”.

Variants of: B2
Conditions: with TOM1, O60784-1
TOM1, O60784-1, sequence (O60784 whole entry): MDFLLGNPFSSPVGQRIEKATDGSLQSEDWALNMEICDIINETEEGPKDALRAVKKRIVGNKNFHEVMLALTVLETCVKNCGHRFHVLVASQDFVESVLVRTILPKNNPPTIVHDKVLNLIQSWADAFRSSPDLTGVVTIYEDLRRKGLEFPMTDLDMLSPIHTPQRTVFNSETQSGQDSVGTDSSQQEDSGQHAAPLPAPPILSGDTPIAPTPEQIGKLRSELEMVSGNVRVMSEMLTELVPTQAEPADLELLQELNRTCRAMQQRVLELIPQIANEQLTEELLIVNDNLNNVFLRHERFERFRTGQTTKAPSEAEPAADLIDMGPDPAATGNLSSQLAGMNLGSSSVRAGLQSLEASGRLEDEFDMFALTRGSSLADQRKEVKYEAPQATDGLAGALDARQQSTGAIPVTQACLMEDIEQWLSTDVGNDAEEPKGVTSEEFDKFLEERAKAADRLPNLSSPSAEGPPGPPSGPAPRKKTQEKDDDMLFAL
For W1202L, the “effect of a mutation on the interaction” value was “disrupting interaction strength”.
